Experimental data reported in article PMC5499675 (2017).

B1: Expanded TCR clonotype from subject T1D2 (Sequences 1 and 2) (TCR)
alpha TRAV29 TRAJ40 CDR3: CAATRTSGTYKYIF
beta TRBV6-6 TRBJ2-3 CDR3: CASSPWGAGGTDTQYF
B2: Expanded TCR clonotype from subject T1D4 (Sequences 3 and 4) (TCR)
alpha TRAV2 TRAJ15 CDR3: CAVEDLNQAGTALIF
beta TRBV5-1 TRBJ2-1 CDR3: CASSLALGQGNQQFF

What was measured:
[1] = biological target: T1, IGRP peptide on HLA-DRA*01:01 / HLA-DRB1*04:01 (human); experiment: multimer staining
T1 peptide: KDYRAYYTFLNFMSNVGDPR

[2] = biological target: IGRP peptide on HLA-DRA*01:01 / HLA-DRB1*04:01 (human); experiment: multimer staining; remark: listed apart in the source
[3] = biological target: T2, IGRP peptide on HLA-DRA*01:01 / HLA-DRB1*04:01 (human); experiment: multimer staining; remark: listed apart in the source
[4] = biological target: T3, influenza hemagglutinin peptide on HLA-DRA*01:01 / HLA-DRB1*04:01 (human); experiment: multimer staining
T3 peptide: PRYVKQNTLKLAT

[5] = biological target: T1, IGRP peptide on HLA-DRA*01:01 / …; experiment: proliferation
[6] = biological target: T2, IGRP peptide on HLA-DRA*01:01 / …; experiment: proliferation; remark: listed apart in the source

Binder | binding result [1] | binding result [2] | binding result [3] | binding result [4] | binding result [5] | binding result [6]
B1 | no recognition | no recognition | recognises | no recognition | – | –
B2 | – | recognises | – | no recognition | no recognition | no recognition
